# Changes are numbered by the printed parent chain.
# T1: recombinant human DLL1 (Alexis) (human, UniProt O00548 18-545, limits assumed)
# T1 construct: also called hDLL1; rhDLL1
# T1 sequence (looked up): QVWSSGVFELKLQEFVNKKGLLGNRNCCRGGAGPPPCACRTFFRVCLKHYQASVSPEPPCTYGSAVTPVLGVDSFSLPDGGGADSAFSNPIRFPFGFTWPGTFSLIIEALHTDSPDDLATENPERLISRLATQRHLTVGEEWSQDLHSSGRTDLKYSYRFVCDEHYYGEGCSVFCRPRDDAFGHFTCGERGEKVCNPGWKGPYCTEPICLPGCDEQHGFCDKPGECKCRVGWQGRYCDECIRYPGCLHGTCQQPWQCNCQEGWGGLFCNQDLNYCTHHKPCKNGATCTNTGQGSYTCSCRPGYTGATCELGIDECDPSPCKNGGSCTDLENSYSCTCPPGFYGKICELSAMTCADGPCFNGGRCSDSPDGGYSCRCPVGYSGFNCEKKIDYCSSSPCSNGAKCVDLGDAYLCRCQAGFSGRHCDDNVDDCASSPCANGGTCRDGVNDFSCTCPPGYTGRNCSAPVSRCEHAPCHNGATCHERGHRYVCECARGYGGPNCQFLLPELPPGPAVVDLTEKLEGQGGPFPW
# T2: human DLL1 (human, UniProt O00548 18-545, limits assumed)
# T2 construct: also called hDLL1; rhDLL1
# T2 sequence (looked up): T1 sequence (looked up)
# B1: DLLBII62C11 (VHH)
# VHH: EVQLMESGGGLVQPGGSLRLSCVAAGFTFSNYYMSWVRQAPGKGLEWVSVISPDGSNTYYADTVKGRFTISRGNAKNTLFLQMTGLKSEDAAVYYCARGSGSWGVHGQGTQVTVSS
# notes: not shown: C-terminal c-myc and His6 tags
# B2: DLLBII56A09 (VHH, not shown: small tags and cut ends)
# VHH: EVQLVESGGGLVQPGGSLRLSCAASGFTFDDYAIGWFRQAPGKEPEGISCISSSGGITYYADSVKGRFTTSRDNAKNTVYLQMNSLKPEDTAVYYCATPGIAACRGIHYTGQGTQVTVSS
# B3: DLLBII104G01 (VHH)
# VHH: EVQLVESGGGLVQAGGSLRLSCAASGFTFDDYAIGWFRQAPGKEREGVSCISSSDGSTYYADSVKGRFTISSDNAKNTVYLQMNSLKPEDTAVYYCATAWCDSSWYRSFVGYWGQGTQVTVSS
# notes: also called 104G1; DLLBII104G1; not shown: C-terminal c-myc and His6 tags
# B4: DLLBII129D08 (VHH)
# VHH: EVQLVESGGGLVQAGGSLRLSCAASGRTFSSYAMAWYRQAPGKEREYVAAIRWSGGTAYYADSVQGRFTISRDNAKNTVYLQMNSLKPEDTAVYYCANRAPDTRLEPYLYDYWGQGTQVTVSS
# notes: as for B1
# B5: DLLBII101G08 (VHH)
# VHH: B4 VHH with Y37F, Y47F, P101A, E106G, L109E
# notes: also called 101G8; DLLBII101G8; not shown: C-terminal c-myc tag and His6 tag
# B6: DLLBII129B05 (VHH)
# VHH: B4 VHH with E106A, L109E, Y112H
# notes: as for B1
# B7: DLLBII129E11 (VHH)
# VHH: B4 VHH with E106R
# notes: as for B1
# B8: DLLBII115A05 (VHH)
# VHH: EVQLVESGGGLVQPGGSLRLSCAASGFTFGSYDMSWVRRSPGKGPEWVSSINSGGGSTYYADFVKGRFTISRDNAKNTLYLQMNSLKPEDTAVYYCAADRYIRARQGDYWGAYEYDYWGQGTQVTVSS
# notes: also called 115A5; DLLBII115A5; not shown: C-terminal c-myc and His6 tags
# B9: DLLBII115A05 (VHH)
# VHH: B8 VHH
# notes: also called 115A5; DLLBII115A5; not shown: C-terminal c-myc tag and His6 tag
# B10: DLLBII136C07 (VHH)
# VHH: B8 VHH with F63Y, R103W, D108E
# notes: as for B1
# B11: DLLBII015 (VHH)
# VHH: B8 VHH with F29I, S50A, F63Y, R103W, D108E, E114A
# notes: as for B1
# B12: DLLBII133G05 (VHH)
# VHH: B8 VHH with S50A, A61T, F63Y, R103W, D108E, E114A
# notes: as for B1
# B13: DLLBII96C03 (VHH)
# VHH: EVQLVESGGGLVQPGGSLRLSCAASGFTFGNYDMSWVRQAPGKGPEWVSAINSGGGDTYYADSVKGRFTISRDNAKNTLYLQMNSLKPEDTAVYYCATPRGWGPTGPHEYGYWGQGTQVTVSS
# notes: also called 96CO3; 96C3; not shown: C-terminal c-myc and His6 tags
# B14: DLLBII17F10 (VHH)
# VHH: EVQLVESGGGLVQAGGSLRLSCASSGRTLLNYAMGWFRQAPGKEREFVSGINWSGGSTYYADSVKGRFTISRDNAENTVYLHMNSLKPEDTAVYYCAAAHDNYWFTDDSLGRGLKYWGQGTQVTVSS
# notes: as for B1
# Assays:
# [1] = target: T3, mouse DLL4, full length, overexpressed on CHO or HEK293 cells (mouse, UniProt Q9JI71 27-686); test: periplasmic extract; FMAT, Notch1/Fc on CHO-mDLL4
# T3 construct: whole, on cells; also called CHO-mDLL4; CHO-mDII4
# T3 sequence (Q9JI71 27-686): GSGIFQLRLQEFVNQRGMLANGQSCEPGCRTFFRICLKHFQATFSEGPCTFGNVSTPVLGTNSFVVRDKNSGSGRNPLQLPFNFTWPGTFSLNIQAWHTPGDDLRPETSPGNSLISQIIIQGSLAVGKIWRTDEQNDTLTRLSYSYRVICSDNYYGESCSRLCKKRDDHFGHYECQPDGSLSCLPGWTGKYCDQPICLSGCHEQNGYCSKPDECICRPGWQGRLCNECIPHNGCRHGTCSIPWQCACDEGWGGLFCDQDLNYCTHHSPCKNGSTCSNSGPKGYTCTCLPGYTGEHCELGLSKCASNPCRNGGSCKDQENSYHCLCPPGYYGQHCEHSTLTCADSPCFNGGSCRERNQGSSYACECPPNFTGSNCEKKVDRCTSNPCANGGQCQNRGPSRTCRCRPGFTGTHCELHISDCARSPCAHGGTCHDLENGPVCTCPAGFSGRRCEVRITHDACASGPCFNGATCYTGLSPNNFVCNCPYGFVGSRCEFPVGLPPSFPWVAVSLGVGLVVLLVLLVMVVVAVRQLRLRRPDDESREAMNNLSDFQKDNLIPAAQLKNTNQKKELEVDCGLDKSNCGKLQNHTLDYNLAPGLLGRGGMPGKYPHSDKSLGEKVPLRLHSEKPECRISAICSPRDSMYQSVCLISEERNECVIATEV
# From the text: (§1) All calculations are based on the FL1_total signal which comprises the average of the fluorescence per well times the number of counts per well.
# [2] = target: T4, human DLL4, full length, overexpressed on CHO or HEK293 cells (human, UniProt Q9NR61 27-685); test: periplasmic extract; FMAT, Notch1/Fc on CHO-hDLL4
# T4 construct: also called CHO-hDLL4; CHO-hDII4
# From the text: as §1
# [3] = target: T4, human DLL4, full length, overexpressed …; test: cell-based or functional assay
# recombinant human DLL4 [4] = target: T5, recombinant human DLL4 (human, UniProt Q9NR61 25-522); test: cell-based or functional assay
# [5] = target: T6, recombinant human DLL4 extracellular domain, C-terminally His-tagged (R&D Systems) (human, UniProt Q9NR61 25-522, biotinylated in the competition assays (sites not given)); test: cell-based or functional assay
# [6] = target: T7, recombinant human Jagged-1 (Alexis) (human, UniProt P78504 34-1067, limits assumed); test: rhDLL1/rhJAG1 binding ELISA
# T7 construct: also called hJagged-1; hJAG1
# [7] = target: T1, recombinant human DLL1 (Alexis); test: rhDLL1/rhJAG1 binding ELISA
# recombinant human DLL4 [8] = target: T5, recombinant human DLL4; test: ProteOn off-rate screen, periplasmic extract, hDLL4 on chip
# Description: (§2) In a first cycle, amino acid substitutions are introduced randomly in both framework (FW) and complementary determining regions (CDR) using the error-prone PCR method. […] After a polish step, PCR products are inserted via unique restriction sites into a vector designed to facilitate phage display of the VHH library. […] No selections on murine DLL4 are included as (conservation of) cross-reactivity is assessed at the screening level. Individual mutants are produced as recombinant protein using an expression vector derived from pUC119, which contains the LacZ promoter, a resistance gene for ampicillin, a multiple cloning site and an ompA leader sequence (pAX50). E. coli TG1 cells are transformed with the expression vector library and plated on agar plates (LB+Amp+2% glucose). Single colonies are picked from the agar plates and grown in 1 mL 96-deep-well plates. VHH expression is induced by adding IPTG (1 mM). Periplasmic extracts (in a volume of ˜80 uL) are prepared according to standard methods and screened for binding to recombinant human and mouse DII4 in a ProteOn (BioRad, Hercules, Calif., USA) off-rate assay. […] Periplasmic extract of affinity matured clones is diluted 1/10 and injected across the “analyte channels” A1-A6. An average off-rate is calculated of the wild type clones present in the plate and served as a reference to calculate off-rate improvements.
# recombinant mouse DLL4 = target: T8, recombinant mouse DLL4 (mouse, UniProt Q9JI71 27-532); test: ProteOn off-rate screen, periplasmic extract, mDLL4 on chip
# T8 construct: extracellular domain; also called rmDLL4; mDLL4; not shown: C-terminal His tag
# T8 sequence (Q9JI71 27-532): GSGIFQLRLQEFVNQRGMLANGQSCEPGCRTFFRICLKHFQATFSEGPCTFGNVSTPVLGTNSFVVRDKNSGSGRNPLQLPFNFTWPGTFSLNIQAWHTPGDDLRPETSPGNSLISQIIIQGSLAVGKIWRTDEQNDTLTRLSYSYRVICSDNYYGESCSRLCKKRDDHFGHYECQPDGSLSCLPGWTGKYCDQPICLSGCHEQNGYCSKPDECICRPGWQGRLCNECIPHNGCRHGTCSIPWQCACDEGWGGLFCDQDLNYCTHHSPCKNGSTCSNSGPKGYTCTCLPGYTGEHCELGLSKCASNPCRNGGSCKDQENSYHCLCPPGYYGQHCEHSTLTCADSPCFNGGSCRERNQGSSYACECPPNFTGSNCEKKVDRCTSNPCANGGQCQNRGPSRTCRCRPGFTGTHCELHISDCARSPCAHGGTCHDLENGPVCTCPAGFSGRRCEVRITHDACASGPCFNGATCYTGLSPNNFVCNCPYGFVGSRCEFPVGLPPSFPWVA
# Description: as §2
# human DLL1 = target: T2, human DLL1; test: binding ELISA, coated hDLL1
# Description: (§3) Absence of binding to homologous ligands human DLL1 and human Jagged-1 is assessed via solid phase binding assay (ELISA). In brief, human DLL1 (Alexis, San Diego, Calif., USA) and human Jagged-1 (Alexis, San Diego, Calif., USA) are coated overnight at 4° C. at 1 μg/mL in a 96-well MaxiSorp plate (Nunc, Wiesbaden, Germany). Wells are blocked with a casein solution (1% in PBS). VHHs are applied as dilution series and binding is detected using a mouse anti-myc (Roche) and an anti-mouse-AP conjugate (Sigma, St. Louis, Mo., USA).
# human Jagged-1 = target: T9, human Jagged-1 (human, UniProt P78504 34-1067, limits assumed); test: binding ELISA, coated hJagged-1
# T9 construct: also called hJag-1; hJAG1
# Description: as §3
# [9] = target: T10, recombinant mouse DLL4 extracellular domain, C-terminally His-tagged (R&D Systems) (mouse, UniProt Q9JI71 27-525); test: binding ELISA on coated rmDLL4
# T10 construct: range 1-525; also called rmDLL4; mDLL4; not shown: C-terminal His tag
# T10 sequence (Q9JI71 27-525 limits assumed): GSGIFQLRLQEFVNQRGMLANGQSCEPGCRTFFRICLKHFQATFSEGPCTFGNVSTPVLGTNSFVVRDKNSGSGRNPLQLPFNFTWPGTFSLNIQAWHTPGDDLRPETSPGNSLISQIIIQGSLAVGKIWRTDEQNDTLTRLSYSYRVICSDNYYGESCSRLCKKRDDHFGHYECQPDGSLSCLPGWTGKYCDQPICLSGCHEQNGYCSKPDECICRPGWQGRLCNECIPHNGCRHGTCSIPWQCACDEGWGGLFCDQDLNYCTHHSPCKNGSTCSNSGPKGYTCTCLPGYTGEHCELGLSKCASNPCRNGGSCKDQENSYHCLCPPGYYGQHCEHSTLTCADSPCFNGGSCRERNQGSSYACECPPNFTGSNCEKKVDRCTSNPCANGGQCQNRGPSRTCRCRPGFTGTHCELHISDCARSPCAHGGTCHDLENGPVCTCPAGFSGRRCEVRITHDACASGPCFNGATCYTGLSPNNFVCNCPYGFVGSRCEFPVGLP
# Description: In order to determine cross-reactivity to mouse DII4 a binding ELISA is performed. […] Wells are blocked with a casein solution (1% in PBS). VHHs are applied as dilution series and binding is detected using a mouse anti-myc (Roche) and an anti-mouse-AP conjugate (Sigma, St Louis, Mo., USA) (FIG. 7).
# [10] = target: T6, recombinant human DLL4 extracellular …; test: periplasmic extract; hDLL4/hNotch1 AlphaScreen
# Description: To this mixture, the acceptor beads and the streptavidin donor beads are added and further incubated for 1 hour at room temperature. Fluorescence is measured by reading plates on the Envision Multilabel Plate reader (Perkin Elmer, Waltham, Mass., USA) using an excitation wavelength of 680 nm and an emission wavelength of 520 nm.
# [11] = target: T6, recombinant human DLL4 extracellular …; test: periplasmic extract; hDLL4 ELISA
binder,measurement,setting,value
B1,% inhibition,[1],71%
same,% inhibition,[2],74%
same,"IC50, DLL4/Notch1 reporter assay (luciferase; co-culture with HEK293-hDII4)",[3],4660 nM
B2,"IC50 (nM) in the DLL4 proliferation assay (HUVEC, experiment 1)",recombinant human DLL4 [4],11 nM
same,"IC50 (nM) in the DLL4 proliferation assay (HUVEC, experiment 2)",recombinant human DLL4 [4],6.8 nM
B3,% inhibition,[1],86%
same,% inhibition,[2],94%
same,"IC50, DLL4/Notch1 reporter assay (luciferase; co-culture with HEK293-hDII4)",[3],964 nM
same,"concentration giving complete inhibition, HUVEC proliferation assay",[5],10 µM
B4,binding result,[6],no binding
same,binding result,[7],no binding
B5,fold (off-rate improvement over DLLBII101G08),recombinant human DLL4 [8],1 fold
same,fold (off-rate improvement over DLLBII101G08),recombinant mouse DLL4,1 fold
same,"IC50 (nM) in the DLL4 proliferation assay (HUVEC, experiment 1)",recombinant human DLL4 [4],401 nM
same,"IC50 (nM) in the DLL4 proliferation assay (HUVEC, experiment 2)",recombinant human DLL4 [4],112 nM
same,binding result,human DLL1,no binding
same,binding result,human Jagged-1,no binding
B6,binding result,[6],no binding
same,binding result,[7],no binding
B7,binding result,[6],no binding
same,binding result,[7],no binding
B8,% inhibition,[1],84%
same,% inhibition,[2],74%
same,"IC50, DLL4/Notch1 reporter assay (luciferase; co-culture with HEK293-hDII4)",[3],1740 nM
same,"concentration giving complete inhibition, HUVEC proliferation assay",[5],10 µM
B9,"IC50 (nM) in the DLL4 proliferation assay (HUVEC, experiment 1)",recombinant human DLL4 [4],10000 nM
same,binding result,human DLL1,no binding
same,binding result,human Jagged-1,no binding
B10,binding result,[6],no binding
same,binding result,[7],no binding
B11,binding result,[6],no binding
same,binding result,[7],no binding
B12,binding result,[6],no binding
same,binding result,[7],no binding
same,EC50 (read off the curve),[9],~0.5 nM
B13,% inhibition,[1],83%
same,% inhibition,[2],75%
same,"IC50, DLL4/Notch1 reporter assay (luciferase; co-culture with HEK293-hDII4)",[3],5160 nM
B14,% inhibition,[10],88%
same,% inhibition,[11],98%
same,binding result,[9],no binding (tested: 2.5e-7 M)

# Source: patent US20130078247A1 (Boehringer Ingelheim, published 2013)
